Results: the supplement of paper PMC7125110
± gives the standard error. For part of these data: This sample holds only a part of the variants without activity.

B1: glmS ribozyme (parent)
chain: AUAAAAGCGCCAGAACUACAGAAAUGUAGUUGACGAGGAGGAGGUUUAUCGAAUUUUCGGCGGAUGCCUCCAAA

Tests used:
Settings in all cases: with glucosamine-6-phosphate
[1] = variants of: B1; experiment: kcat; higher = faster cleavage; RNA array
Procedure, shortened: (§1)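 kobs was derived by fitting per-tile medians to one- or two-exponential decays after normalising signals to baseline and to non-cleaving reference variants. Those signals came from barcoded ribozyme variants transcribed in situ by E. coli RNA polymerase on sequenced MiSeq chips, followed through a hybridised Cy3 probe at 37 °C and imaged over ~14 h. Glucosamine-6-phosphate (40 μM to 10 mM) in HEPES/KCl/Mg(OAc)2 buffer was flowed in. Weighted Michaelis–Menten fits across concentrations then gave kcat and KM.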

[2] = variants of: B1; experiment: KM; higher = weaker cofactor use; RNA array
Procedure, shortened: as §1

[3] = variants of: B1; experiment: self-cleavage kobs at 2500 uM GlcN6P; higher = faster cleavage; RNA array
Procedure, shortened: as §1

[4] = variants of: B1; experiment: self-cleavage kobs at 10000 uM GlcN6P; higher = faster cleavage; RNA array
Procedure, shortened: as §1

[5] = variants of: B1; experiment: self-cleavage kobs at 40 uM GlcN6P; higher = faster cleavage; RNA array
Procedure, shortened: as §1

[6] = variants of: B1; experiment: self-cleavage kobs at 160 uM GlcN6P; higher = faster cleavage; RNA array
Procedure, shortened: as §1

[7] = variants of: B1; experiment: self-cleavage kobs at 640 uM GlcN6P; higher = faster cleavage; RNA array
Procedure, shortened: as §1

Row | Variant | kcat [1] | KM [2] | self-cleavage kobs at 2500 uM GlcN6P [3] | self-cleavage kobs at 10000 uM GlcN6P [4] | self-cleavage kobs at 40 uM GlcN6P [5] | self-cleavage kobs at 160 uM GlcN6P [6] | self-cleavage kobs at 640 uM GlcN6P [7]
1 | A48U A64U | 0.000129 ± 1.1e-05 s⁻¹ | 5510 ± 1000 µM | 4.13e-05 ± 1.2e-05 s⁻¹ | 8.33e-05 ± 1.3e-05 s⁻¹ | – | – | –
2 | C10U U30C G59A G60A C70U | < 1e-05 s⁻¹ | – | – | – | < 1e-05 s⁻¹ | – | –
3 | C8U A36C | < 1e-05 s⁻¹ | – | – | < 1e-05 s⁻¹ | – | – | –
4 | A12C U47C | 0.00284 ± 0.00039 s⁻¹ | 1840 ± 380 µM | 0.00187 ± 0.00022 s⁻¹ | 0.00226 ± 0.0002 s⁻¹ | 5.87e-05 ± 6.2e-06 s⁻¹ | 0.000185 ± 3.6e-05 s⁻¹ | 0.000953 ± 0.00013 s⁻¹
5 | G41U A64G | 0.000821 ± 6e-05 s⁻¹ | 2970 ± 430 µM | 0.000414 ± 5.2e-05 s⁻¹ | 0.000621 ± 4.9e-05 s⁻¹ | – | 3.5e-05 ± 9.6e-06 s⁻¹ | 0.00015 ± 2.3e-05 s⁻¹
6 | U45A U46C | 0.0497 ± 0.021 s⁻¹ | 3030 ± 1500 µM | 0.0334 ± 0.017 s⁻¹ | 0.0365 ± 0.012 s⁻¹ | 0.000726 ± 0.00015 s⁻¹ | 0.00197 ± 0.00065 s⁻¹ | –
7 | G44U C70U | 3.72e-05 ± 5.6e-06 s⁻¹ | – | 3.43e-05 ± 1.1e-05 s⁻¹ | 3.29e-05 ± 6.6e-06 s⁻¹ | < 1e-05 s⁻¹ | < 1e-05 s⁻¹ | –
8 | A14G C58U C61U | 1.33e-05 ± 2.7e-06 s⁻¹ | – | – | – | < 1e-05 s⁻¹ | – | –
9 | U54G A64U | 9.79e-05 ± 1.5e-05 s⁻¹ | – | 7.47e-05 ± 9.1e-06 s⁻¹ | 8.01e-05 ± 8e-06 s⁻¹ | – | – | 1.94e-05 ± 7.4e-06 s⁻¹
10 | G51A C61A | 1.66e-05 ± 3.1e-06 s⁻¹ | – | – | – | < 1e-05 s⁻¹ | – | –
11 | A33G C67G | 1.67e-05 ± 4.8e-06 s⁻¹ | – | – | – | – | – | –
12 | A14G G43U U46G | 3.09e-05 ± 3.5e-06 s⁻¹ | 1610 ± 590 µM | – | – | < 1e-05 s⁻¹ | – | –
13 | A64G U69A | 8.09e-05 ± 8.7e-06 s⁻¹ | 1230 ± 510 µM | 4.75e-05 ± 1.6e-05 s⁻¹ | 7.42e-05 ± 1.3e-05 s⁻¹ | < 1e-05 s⁻¹ | – | 3.36e-05 ± 1.6e-05 s⁻¹
14 | A39U | 0.0425 ± 0.0086 s⁻¹ | 3040 ± 720 µM | 0.019 ± 0.00075 s⁻¹ | 0.0347 ± 0.0012 s⁻¹ | 0.000604 ± 1e-05 s⁻¹ | 0.00176 ± 7.4e-05 s⁻¹ | 0.00683 ± 0.00016 s⁻¹
15 | G40U U46A | 0.000471 ± 0.00012 s⁻¹ | 2940 ± 1400 µM | 0.00028 ± 5.4e-05 s⁻¹ | 0.000331 ± 7.2e-05 s⁻¹ | – | – | 6.83e-05 ± 2.4e-05 s⁻¹
16 | U46C U57G | 1.4e-05 ± 2.4e-06 s⁻¹ | – | – | – | – | – | –
17 | A12U G37A G40C | 0.00099 ± 0.00024 s⁻¹ | 4220 ± 1400 µM | 0.000386 ± 9.8e-05 s⁻¹ | 0.000686 ± 0.00012 s⁻¹ | – | 2.74e-05 ± 1.2e-05 s⁻¹ | 0.000134 ± 1.7e-05 s⁻¹

Row | Variant | kcat [1] | KM [2] | self-cleavage kobs at 2500 uM GlcN6P [3] | self-cleavage kobs at 10000 uM GlcN6P [4] | self-cleavage kobs at 40 uM GlcN6P [5] | self-cleavage kobs at 160 uM GlcN6P [6] | self-cleavage kobs at 640 uM GlcN6P [7]
18 | U30C C68G | 4.61e-05 ± 1.8e-05 s⁻¹ | – | 8.75e-05 ± 1.7e-05 s⁻¹ | 2.14e-05 ± 9.4e-06 s⁻¹ | 3.15e-05 ± 1.2e-05 s⁻¹ | 5.26e-05 ± 1.7e-05 s⁻¹ | 8.37e-05 ± 1.7e-05 s⁻¹
19 | G40A U49G | 0.000121 ± 1.7e-06 s⁻¹ | 1210 ± 55 µM | – | 0.000108 ± 1.3e-05 s⁻¹ | – | – | 4.19e-05 ± 1e-05 s⁻¹
20 | U31C G32A | 0.0022 ± 0.00058 s⁻¹ | 6580 ± 2400 µM | 0.000604 ± 7.5e-05 s⁻¹ | 0.00134 ± 0.00014 s⁻¹ | 4.27e-05 ± 1.5e-05 s⁻¹ | 6.8e-05 ± 1.3e-05 s⁻¹ | 0.000179 ± 2.1e-05 s⁻¹
21 | U31C G32U | 0.000799 ± 8e-05 s⁻¹ | 4030 ± 600 µM | 0.000281 ± 2.9e-05 s⁻¹ | 0.000594 ± 5.8e-05 s⁻¹ | – | 3.53e-05 ± 8.1e-06 s⁻¹ | 0.000112 ± 9.6e-06 s⁻¹
22 | U47A C68U | 0.00394 ± 0.0013 s⁻¹ | 3290 ± 1500 µM | 0.00129 ± 0.00025 s⁻¹ | 0.00346 ± 0.00049 s⁻¹ | 7.13e-05 ± 1.3e-05 s⁻¹ | 0.000161 ± 3.2e-05 s⁻¹ | 0.00068 ± 0.00012 s⁻¹
23 | A36U C50G U69G | 0.000296 ± 5.6e-05 s⁻¹ | – | 0.000275 ± 0.00013 s⁻¹ | 0.000368 ± 8.1e-05 s⁻¹ | 0.000397 ± 0.00012 s⁻¹ | 0.000219 ± 6e-05 s⁻¹ | 0.00036 ± 0.00012 s⁻¹
24 | U31C G66U | 0.000326 ± 6.8e-05 s⁻¹ | 4610 ± 1700 µM | 0.000124 ± 1.6e-05 s⁻¹ | 0.000214 ± 3.5e-05 s⁻¹ | – | – | –
25 | C34A G38U | < 1e-05 s⁻¹ | – | – | – | – | – | < 1e-05 s⁻¹
26 | C11A A64G | 0.000168 ± 1.1e-05 s⁻¹ | 1190 ± 250 µM | 0.000135 ± 2.7e-05 s⁻¹ | 0.000147 ± 1.6e-05 s⁻¹ | – | – | 5.53e-05 ± 1.3e-05 s⁻¹
27 | G37C U69A | 1.84e-05 ± 4.8e-06 s⁻¹ | – | – | – | – | – | –
28 | C50U U57G | < 1e-05 s⁻¹ | – | – | – | – | – | < 1e-05 s⁻¹
29 | G40C U56C | 6.61e-05 ± 9.2e-06 s⁻¹ | – | 4.67e-05 ± 2e-05 s⁻¹ | 5.45e-05 ± 8.6e-06 s⁻¹ | < 1e-05 s⁻¹ | < 1e-05 s⁻¹ | –
30 | U65G U69A | 0.000187 ± 3.2e-05 s⁻¹ | 1450 ± 480 µM | 0.000116 ± 2.2e-05 s⁻¹ | 0.000174 ± 5.3e-05 s⁻¹ | – | – | 5.5e-05 ± 1.2e-05 s⁻¹
31 | A33U A42G | 0.000108 ± 7.3e-06 s⁻¹ | 2000 ± 350 µM | 6.02e-05 ± 1.3e-05 s⁻¹ | 8.89e-05 ± 3e-05 s⁻¹ | – | – | –
32 | A39C G66A | 0.004 ± 0.00092 s⁻¹ | 2860 ± 890 µM | 0.00181 ± 0.00027 s⁻¹ | 0.0033 ± 0.00049 s⁻¹ | 7.75e-05 ± 1.2e-05 s⁻¹ | 0.000194 ± 3.3e-05 s⁻¹ | 0.000666 ± 8.8e-05 s⁻¹
33 | A15U A64G | 0.00706 ± 0.00091 s⁻¹ | 1990 ± 370 µM | 0.00336 ± 0.00058 s⁻¹ | 0.0066 ± 0.001 s⁻¹ | 0.000142 ± 2.5e-05 s⁻¹ | 0.00053 ± 0.0001 s⁻¹ | 0.00182 ± 0.00029 s⁻¹
